# B1: PSMA 10.3 (antibody, V domains shown)
# VH: QEQLVESGGGVVQPGRSLRLSCAASGFTFSTYGMHWVRQAPGKGLEWVAVTWHDGSNKYYADSVKGRFTISRDNSKNTLYLQMNSLRAEDTAVYYCARGGVGATYYYYYGMDVWGQGTTVTVSS
# VL: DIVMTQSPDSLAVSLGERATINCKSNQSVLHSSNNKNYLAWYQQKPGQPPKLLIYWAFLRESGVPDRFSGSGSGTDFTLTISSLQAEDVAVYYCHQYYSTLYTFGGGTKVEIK
# notes: human antibody from XenoMouse
# B2: 225Ac labeled mAb 026 (antibody, human IgG1, V domains shown)
# VH: QVQLVESGGGVVQPGRSLRLSCAASGFTFSNYVMHWVRQAPGKGLEWVAIIWYDGSNKYYADSVKGRFTISRDNSKNTLYLQMNSLRAEDTAVYYCAGGYNWNYEYHYYGMDVWGQGTTVTVSS
# VL: DIQMTQSPSSLSASVGDRVTITCRASQGITNYLAWFQQKPGKAPKSLIYAASSLQSGVPSKFSGSGSGTDFSLTISSLQPEDFATYYCQQYNSYPITFGQGTRLEIK
# modifications: 225Ac chelated by bifunctional DOTA conjugated to the antibody, sites not stated
# B3: 026 (antibody, V domains shown)
# VH: QVQLVESGGGVVQPGRSLRLSCAASGFTFSNYVMHWVRQAPGKGLEWVAIIWYDGSNKYYADSVKGRFTISRDNSKNTLYLQMNSLRAEDTAVYYCAGGYNWNYEYHYYGMDVWGQGTTVTVSS
# VL: DIQMTQSPSSLSASVGDRVTITCRASQGITNYLAWFQQKPGKAPKSLIYAASSLQSGVPSKFSGSGSGTDFSLTISSLQPEDFATYYCQQYNSYPITFGQGTRLEIK
# B4: 006 (antibody, V domains shown)
# VH: QVQLVESGGGVVQPGRSLRLSCAASGFAFSRYGMHWVRQAPGKGLEWVAVIWYDGSNKYYADSVKGRFTISRDNSKNTQYLQMNSLRAEDTAVYYCARGGDFLYYYYYGMDVWGQGTTVTVSS
# VL: DIQMTQSPSSLSASVGDRVTITCRASQGISNYLAWYQQKTGKVPKFLIYEASTLQSGVPSRFSGGGSGTDFTLTISSLQPEDVATYYCQNYNSAPFTFGPGTKVDIK
# Key:
# [1] = biological target: T1, recombinant soluble PSMA (rsPSMA) (human, UniProt Q04609 44-750); experiment: Biacore, purified mAb captured, rsPSMA in flow
# T1 construct: Oligomeric state of the preparation not specified in the assay concerned; also called secreted rsPSMA; PSMAECTO
# Method: (§1) To determine the kinetics and affinity of the antibodies, the antibodies in crude supernatants, in purified form and in bifunctional chelate modified forms were analyzed using a Biacore 3000 instrument (Biacore Inc., Piscataway, N.J.). Biacore 3000 is a fully automated surface plasmon resonance (SPR)-based biosensor system that is designed to provide real-time kinetic data from assay formats that require no tags or labeling of compounds for biomolecular interactions. It is ideal for screening crude supernatants.
# (§2) The streptavidin-coated sensor chips (SA chips, Biacore) were used to capture biotinylated anti-human IgG antibody (Sigma, St. Louis, Mo.). The entire sensor chip surface was conditioned with five injections of conditioning solution (1 M NaCl, 50 mM NaOH) and equilibrated with PBS buffer containing 0.005% polysorbate 20. Two to three thousand resonance units (RU) of biotinylated anti-human IgG antibody (Sigma) were immobilized onto the SA chip followed by an injection of regeneration buffer (glycine-HCl, pH 2.2). […] For each antibody at one concentration, the chip was regenerated and equilibrated. […] Thermodynamic and kinetic rate constants of binding were calculated using the Biacore Evaluation software.
# [2] = biological target: T1, recombinant soluble PSMA (rsPSMA); experiment: Biacore, mAb captured on anti-human IgG, rsPSMA in flow; crude supernatant
# Method: as §1, §2
# [3] = biological target: T2, prostate specific membrane antigen (PSMA), full-length human (human, UniProt Q04609 1-750); experiment: cell-based or functional assay
# [4] = biological target: T2, prostate specific membrane antigen …; experiment: cell-based or functional assay; remark: listed apart in the source
# T2 sequence (Q04609 whole entry): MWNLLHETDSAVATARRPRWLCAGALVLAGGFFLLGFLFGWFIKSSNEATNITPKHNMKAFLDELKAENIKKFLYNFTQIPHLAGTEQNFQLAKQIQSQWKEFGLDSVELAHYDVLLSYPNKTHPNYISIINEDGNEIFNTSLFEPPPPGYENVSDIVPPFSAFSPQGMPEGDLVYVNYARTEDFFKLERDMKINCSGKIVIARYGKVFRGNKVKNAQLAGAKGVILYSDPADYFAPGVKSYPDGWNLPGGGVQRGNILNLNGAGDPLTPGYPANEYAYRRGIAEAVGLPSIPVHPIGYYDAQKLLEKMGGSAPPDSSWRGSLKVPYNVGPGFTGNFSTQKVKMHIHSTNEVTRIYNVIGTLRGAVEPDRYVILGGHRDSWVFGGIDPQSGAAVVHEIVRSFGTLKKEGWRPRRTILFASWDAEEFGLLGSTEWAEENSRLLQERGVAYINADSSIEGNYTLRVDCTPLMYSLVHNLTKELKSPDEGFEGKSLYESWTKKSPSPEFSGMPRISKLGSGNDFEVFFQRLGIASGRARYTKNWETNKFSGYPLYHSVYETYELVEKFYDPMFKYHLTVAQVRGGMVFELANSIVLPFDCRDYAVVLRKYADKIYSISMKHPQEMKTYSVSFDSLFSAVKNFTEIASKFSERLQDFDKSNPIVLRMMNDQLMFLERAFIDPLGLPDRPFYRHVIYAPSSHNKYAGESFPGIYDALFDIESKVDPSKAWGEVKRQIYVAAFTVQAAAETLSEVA
# T1 sequence (Q04609 44-750): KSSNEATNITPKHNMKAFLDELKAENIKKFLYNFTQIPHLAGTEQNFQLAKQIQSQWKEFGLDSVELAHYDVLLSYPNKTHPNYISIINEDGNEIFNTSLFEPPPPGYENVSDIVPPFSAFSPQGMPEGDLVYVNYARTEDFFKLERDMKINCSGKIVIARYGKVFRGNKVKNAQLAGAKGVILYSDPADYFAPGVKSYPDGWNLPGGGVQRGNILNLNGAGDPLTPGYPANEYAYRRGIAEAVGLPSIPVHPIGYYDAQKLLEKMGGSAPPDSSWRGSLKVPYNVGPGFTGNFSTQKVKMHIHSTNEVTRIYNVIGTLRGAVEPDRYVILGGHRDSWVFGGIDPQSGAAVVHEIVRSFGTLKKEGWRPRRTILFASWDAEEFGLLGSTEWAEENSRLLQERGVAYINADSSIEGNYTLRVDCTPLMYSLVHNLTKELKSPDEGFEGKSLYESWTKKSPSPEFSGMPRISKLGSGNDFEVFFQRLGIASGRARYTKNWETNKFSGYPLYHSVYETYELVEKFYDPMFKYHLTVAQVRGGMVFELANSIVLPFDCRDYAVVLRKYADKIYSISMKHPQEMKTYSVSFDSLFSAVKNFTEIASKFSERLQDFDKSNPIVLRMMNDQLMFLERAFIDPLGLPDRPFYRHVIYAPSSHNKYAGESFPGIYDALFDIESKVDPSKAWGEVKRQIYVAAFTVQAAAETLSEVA
binder,measurement,setting,value
B1,Kd,[1],0.217 nM
same,koff,[2],0.000363 s⁻¹
B2,"IC50, cell survival (Alamar Blue) of C4-2 and LNCaP cells",[3],< 1 nCi/mL
same,"IC50, cell survival of C4-2 cells by 3H thymidine incorporation",[3],0.12 nCi/mL
same,"selectivity of killing, C4-2 vs PC3",[3],> 50 fold
B3,"PSMA+/PSMA- Ratio of tumor uptake, Mean",[4],5.55
B4,"PSMA+/PSMA- Ratio of tumor uptake, Mean",[4],4.27

# Source: US20040161776A1 (PSMA DEVELOPMENT, published 2004)
